# Measurements as given in patent US7838495B2, “Compositions and methods of use of EPB1, and ErbB3 binding protein” (University of Maryland, Baltimore, priority 2007, dated 2010).
# B1: EBP1: ErbB3 binding protein (SEQ ID NO: 2), AR corepressor, here ectopically expressed in cancer cells by stable transfection of an expression plasmid (protein, listed as Homo sapiens)
# chain: MSGEDEQQEQTIAEDLVVTKYKMGGDIANRVLRSLVEASSSGVSVLSLCEKGDAMIMEETGKIFKKEKEMKKGIAFPTSISVNNCVCHFSPLKSDQDYILKEGDLVKIDLGVHVDGFIANVAHTFVVDVAQGTQVTGRKADVIKAAHLCAEAALRLVKPGNQNTQVTEAWNKVAHSFNCTPIEGMLSHQLKQHVIDGEKTIIQNPTDQQKKDHEKAEFEVHEVYAVDVLVSSGEGKAKDAGQRTTIYKRDPSKQYGLKMKTSRAFFSEVERRFDAMPFTLRAFEDEKKARMGVVECAKHELLQPFNVLYEKEGEFVAQFKFTVLLMPNGPMRITSGPFEPDLYKSEMEVQDAELKALLQSSASRKTQKKKKKKASKTAENATSGETLEENEAGD
# modifications: FLAG tag
# Assays:
# C81 cells = test: RT-PCR, Western blot and ELISA in C81 EBP1 transfectants; assay type: cell-based, human
# Description: FIG. 5A-D. Expression of genes associated with androgen independence is decreased in C81 EBP1 transfectants. A. Lysates of logarithmically growing clones of C81 EBP1 transfectants (E1,2) or vector controls (V 1,2) were resolved by SDS-PAGE and immunoblotted for AR, BCL-2, BAD, FLAG, EBP1 and ACTIN as indicated. Representative of 3 experiments. B. Secreted PSA as measured by ELISA. EBP1 and vector control cells were plated at 1×10^6 cells/100 mm dish in complete media. Forty-eight hours later, conditioned media were collected and frozen. PSA activity was assessed by ELISA. Levels of PSA were adjusted to total cell number. Data is representative of 2 experiments. C. Validation of mRNA levels in EBP1 transfectants. Quantitative RT PCR was performed for the KALLIKREIN-2, AGR2 and TSPY genes in EBP1 and vector transfectants. The relative levels of all test mRNAs were normalized to β-ACTIN. Results are representative of 3 experiments using different sets of cells. D. Expression of AGR2 protein in vector and EBP1 C81 transfectants. Lysates of vector control (V) or EBP1 (E) transfected cells grown in complete media were resolved by SDS-PAGE and analyzed by Western blotting with antibody to AGR2.
# Microarray Analysis and Bioinformatics. RNA was prepared using the Trizol Reagent as previously described (8). Microarray processing and data analysis was performed at Genome Explorations (Nashville, Tenn.). U133A oligonucleotide arrays (Affymetrix) containing ˜33,000 full length annotated genes together with additional probe sets designed to represent EST sequences were used for the analysis. Only genes with a minimum expression level of 500 were included in this analysis. […] Oncomine analyses were performed by using Oncomine 3.0 (www.oncomine.org). Real Time Quantitative Reverse-Transcription PCR. Both cell culture samples and a commercial panel of cDNAs from normal prostate and prostate tumors (TissueScan, Origene, Rockville, Md.) were examined. The method of Nakanishi et al. (15) was used as previously described. Real-time quantitative RT-PCR was performed on the LightCycler® (Roche) platform. The following forward and reverse primers were selected using Primer Express software and synthesized by the Core Laboratory of University of Maryland School of Medicine: Ebp1, sense: 5′-GCA CGC CAA TAG AAG G-3′ (SEQ ID NO: 16) and antisense: 5′-GTA AAC GGC ATG GCA TC-3′ (SEQ ID NO: 17) kallikrein-2 sense: 5′-CAT CCA GTC TCG GAT TG-3′ (SEQ ID NO: 18) and antisense: 5′-CTC ATA TTG TAG AGC GGG T-3′ (SEQ ID NO: 19), TSPY, sense: 5′-CAGGGCTTCTCATTCCACTC-3′ (SEQ ID NO: 20) and antisense: 5′-CCATCATATTCAACTCAACAA CTGG-3′ (16; SEQ ID NO: 21), AGR2, sense: 5′-ATTGGCAGAGCAGTTTCTCC-3′ (SEQ ID NO: 22) and antisense, 5′-GAGCTGTATCTGCAGGTTCGT (17; SEQ ID NO: 23) 13-Actin, sense: 5′-GCTATCCAGGCTGTGCTATC-3′ (SEQ ID NO: 24) and antisense 5′-TGT CAC GCA CGA TTT CC-3′ (SEQ ID NO: 25). A SYBR®Green PCR Kit was used as per the manufacturer's instructions (Applied Biosystems, Foster City, Calif.) and the analyses were performed in duplicate or triplicate.
# Measurement of PSA levels. Serum PSA levels were determined using a PSA ELISA kit from DSL, Inc (Webster, Tex.) as previously described (9).
# Western Blot Analysis. Western blot analysis was performed as previously described (19). The Ebp1 antibody was from Upstate (Lake Placid, N.Y.), the polyclonal antibody to actin from Sigma, the AKT and phospho AKT antibodies from Cell Signaling (Beverly, Mass.) and the AGR2 antibody was previously described (20) Cell Growth Assays Cell growth measurement in complete media was performed as described using a hemocytometer (21). For soft agar growth assays, increasing concentrations of cells (as indicated) were plated in 35 mm Petri dishes in 0.3% agar in complete media and colonies were counted after 10 days of incubation (21). […]
# LNCaP cells = test: LNCaP xenografts in SCID mice; assay type: in vivo
# Description: In Vivo Studies in SCID Mice: Male SCID mice, 4-6 weeks of age, were purchased from the National Cancer Institute (Frederick, Md.). Animals were housed in a pathogen-free environment under controlled conditions of light and humidity and received food and water ad libitum. LNCaP cells were grown in complete medium and 800 μg/ml of G418 until 80% confluent. Cells were scraped into phosphate-buffered saline (PBS), collected by centrifugation, and suspended in Matrigel™ (10 mg/ml) (Collaborative Research, Waltham, Mass.) at 1×10^7 cells/ml. Each mouse received s.c. injections at one site on each flank with 100 μl of cell suspension. Tumors were measured three times a week with calipers, and tumor volumes were calculated by the formula 0.5236×r1^2×r2 (r1<r2). The animal protocols were approved by the Institutional Animal Care and Use Committee at the University of Maryland.
# After sacrifice, tumors were excised and fixed in 10% buffered neutral formalin. Sections of formalin-fixed, paraffin-embedded tissues were cut to 5 μm. Slides were stained with an EPB1 antibody (Upstate) diluted 1:50 using the standard avidin-biotin method (Vector Labs, Burlinghame, Calif.). Peroxidase activity was localized by the diaminobenzidine tetrachloride peroxidase reaction with Harris hematoxylin as a counterstain.
# [1] = C81 EBP1 transfectants vs vector controls, real time RT-PCR
# [2] = C81 clones transfected with FLAG-tagged EBP1, Western blot
molecule,measurement,setting,value
B1,AGR2 protein,"C81 cells; C81 EBP1 transfectants in complete media, Western blot",decreased
same,decrease of secreted PSA protein levels,"C81 cells; C81 EBP1 transfectants vs vector controls, ELISA",60%
same,AGR2 mRNA downregulation,C81 cells; [1],over 90%
same,Kallikrein-2 mRNA downregulation,C81 cells; [1],over 80%
same,TSPY mRNA downregulation,"C81 cells; C81 EBP1 transfectants, real time RT-PCR",over 90%
same,AR protein level,C81 cells; [2],markedly reduced
same,BAD protein level,C81 cells; [2],remained the same as the vector controls
same,Bcl2 protein level,C81 cells; [2],markedly reduced
same,inoculation sites with tumors on day 20,LNCaP cells; EBP1-transfected LNCaP s.c. in SCID mice (vector controls 35%),10%
same,sites that developed tumors at the end of the study,"LNCaP cells; EBP1-transfected LNCaP s.c. in SCID mice (vector more than 85%), p=0.04",less than 40%
same,average tumor volume at the end of the study,"LNCaP cells; EPB1-transfected LNCaP in SCID mice (vector 1214±168), p=0.0003",268±70 mm^3
same,tumor growth rate,"LNCaP cells; EPB1 transfectants vs vector, all time points, p=0.0001",slower
